# The RNAGym collection of RNA variant scans (doi:10.1073/pnas.2313332121)
# B1: TPR t1 (parent)
# chain: GACCAAUCUGCCCUCAGAGCUCGAGAACAUCUUCGGAUGCAGAGGAGGCAGGCUUCGGUGGCGCGAUAGCGCCAACGUCCUCAACCUCCAAUGCAUCCCACCACAUGAUGAUGCCUGAAGAGCCUUGGUUUUUUG
# Variants of: B1
# Assay: polymerase ribozyme fitness, log enrichment relative to wild type (log ratio); higher = more active; in vitro selection for triplet polymerase activity
# In short: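 After PCR construction and transcription, each subunit's mutant library from a heterodimeric triplet polymerase ribozyme was annealed with a biotinylated primer, the partner subunit and triplets. Incubation was frozen, at −7 °C, and extended constructs were gel-excised, bound to streptavidin beads and amplified by RT-PCR, in one selection round done in triplicate. Fitness is the logarithm of a genotype's enrichment divided by that of the wild type, from inverse-variance-weighted replicate averages of Illumina-sequenced inputs and outputs. The base of the logarithm is 2, and genotypes needed ≥10 input reads and ≥1 read per output.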
row,Variant,polymerase ribozyme fitness (log ratio)
1,C94G U109C A121U,-6.64
2,C89G G93U G120U,-3.31
3,C88U U112G,0.74
4,C85G G113A,-2.15
5,C85G G113C,-3.51
6,A90U A105G,-3.78
7,U92G C97U G110U,-5.82
8,G93C U129A,-1.91
9,A95C G113C C124G,-1.76
10,A90U U116C,-1.26
11,C97G A121U,-2.07
12,U87C G107U,-4.55
13,C86A C115A G128A U133A,-4.43
14,C88U G120U U132C,0.106
15,U96C C123G G127C,-0.432
16,U87A C89U,0.835
17,U87A C124U,1.04
18,A91G C97A A118U,-5.26
19,G93A G113U C114G,-2.9
20,C97U C115U,-2.49
21,G93C C114G,-4.17
22,A91U C98U,-3.3
23,U92A A108U U112C G113A A121G,-6.52
24,U87C A105G,-1.78

row,Variant,polymerase ribozyme fitness (log ratio)
1,C89G G113A,-3.42
2,C89G G113U,-3.93
3,C86A G120U,-0.761
4,U92G C123A,-2.78
5,U87A C89U G128A,-2.15
6,U87C C114G,-2
7,C88U G93A A108G C115U A118U G135C,-4.45
8,A84U U133G,-0.42
9,C88A C101A,-1.2
10,G93U G117U,-3.63
11,C94A A111U,-0.728
12,C88U U125G,-1.39
13,G93U G120A U125A,0.0882
14,C94U G113U,-2.09
15,C88A C123U,1.08
16,U92A U106C C114A,-4.09
17,U87C A103U,-3.8
18,C89U G120C,0.737
19,U87G G93A U112A U133A,1.36
20,U87C C98A,-4.87
21,A95G U109C,-5.61
22,C86G A100U,-0.874
23,A95C U109A U112C,-4.49
24,C89A C123U C124G,1.14

row,Variant,polymerase ribozyme fitness (log ratio)
1,C88A A121C,1.66
2,C85U G113A,-2.02
3,A95U G113A,-2.53
4,A95G A103C G120U G135U,-6.78
5,C86A A90C G135U,-2.98
6,C85A U116C,-2.08
7,A95C U109A,-7.08
8,C88U C98A U106G,-5.05
9,A90C U92C C102A G120C U132A,-4.27
10,A90C C97U U112C C114A,-3.18
11,U92A U116C,-3.44
12,C97G G120U U126C,-4.9
13,G93A C123A,0.264
14,U96G C114U,-2.28
15,U87A C88U,-1.46
16,G93U U132C,-1.31
17,C88U G117A,-1.32
18,A90C C123U,0.206
19,A91G A100C A111U A121G,-3.81
20,C85U A90U U109G C124A,-6.07
21,C89A A91U,-1.18
22,A91U C115G,-2.97
23,A91U C115U,-2.04
24,U96G A100U C104U,-0.962

row,Variant,polymerase ribozyme fitness (log ratio)
1,C98A C114U C123G U131C,-5.24
2,G93C A121U U133G,1.15
3,A90C C104U A105C,-5.64
4,C97G C115G,-3.69
5,C89A A121U U125G,-0.211
6,U92A G110C,-6.13
7,U92A G110A,-5.07
8,C97A C124A,-2.9
9,U87A C114A,-2.58
10,C85U A91C A95G,-2.23
11,C97U G120U U130C,-0.251
12,U92G A108U U112A G113A,-6.92
13,G93A A95G,-1.81
14,C85U C123G,0.896
15,A90U G117U,-3.37
16,C88U G110U U125G,-2.46
17,C89U C99G A100C C123G,-7.05
18,C88U C124A,1.47
19,U87A C88A U96C,-1.02
20,U92A U109G,-5.94
21,U96A C104U U132A,-0.322
22,A90U G93A U112C,-0.194
23,A90C C94U,-1.34
24,C88U C123A,1.43

row,Variant,polymerase ribozyme fitness (log ratio)
1,C88U C123U,0.953
2,C89A G93A U106A,-3.07
3,C89A A111C,-2.88
4,C89A A111G,-1.35
5,C89U A100U,-1.41
6,C98A C99A,-6.47
7,C86U C114U,-1.7
8,C89U G122A,-0.697
9,C89U G122U,-0.616
10,C97U G117C,-4.37
11,C85G A90U G127C U133A,-4.53
12,G93C G117C,-4.74
13,C94U G110U,-2.05
14,C89U G117C,-4.26
15,G93C G120U,-1.78
16,G93C G120C,-1.19
17,A95G C114G,-3.45
18,G93C U106C U112C,0.785
19,U87A U129A,-0.873
20,C94A C123U,0.185
21,A91C U96A,-2.09
22,C89A A105C,-4.64
23,A91C C123U,-0.37
24,C86A G127C,-1.91

row,Variant,polymerase ribozyme fitness (log ratio)
1,C89G G120C,-0.58
2,C85U G135U,-1.91
3,C94A A105U A121C,-2.21
4,C86G C89A C114A,-4.58
5,C86G C102G C115A U133A,-5.49
6,C86U G120A U130C G135U,-0.0631
7,C85G U130A G135U,-3.18
8,C85G A119G,-0.0195
9,U87C U130C,0.298
10,C94G U106A,-1.14
11,G93U U96G C124A,0.232
12,G93A G117C,-3.87
13,C94A C98A,-6.59
14,C86U G93U U106C C124U U126A,-2.34
15,C97U C101U U116G A118G,-4.15
16,G93A C104A G113C,-4.27
17,C85U U96C,-0.852
18,C88A C89G C123U U134G,0.911
19,U87G C102A C124G,0.127
20,G93A G122A U125G,-3.18
21,U92G U109A C124A U131A,-6.86
22,U87A U112A,1.76
23,C98A C114U,-6.3
24,C86U A100C G110U U129C,-4.69

row,Variant,polymerase ribozyme fitness (log ratio)
1,U96A U106A,-0.585
2,A95U C114A,-1.43
3,A95C G107A,-7.02
4,U96G C102U,-2.86
5,U87G A121C,1.82
6,A90G C104U U112C A121U U130C,2.04
7,U87G A91U U109A U125C,-5.71
8,G93U U133A,-0.793
9,C97U A103U G113C C115A U116A,-6.04
10,G93U C115A,-2.49
11,G93U C115U,-1.63
12,C85A C99U,-4.7
13,C89U A108G A119G U131G U132C,-1.34
14,U96A C114U,-3.4
15,A91G U112A G127C,-1.56
16,C94A G117U U129A,-4.44
17,C89A U116G C123G,-3.17
18,A91U U109A,-8.07
19,C86G C88A,-1.96
20,C86U C94U C115A,-0.874
21,C85A C104U,-1.07
22,C86U A103C,-5.52
23,A91U U96G G120U,-1.75
